The values that follow come from US20200115447A1 (Chugai, published 2020).

Assay [1] deals with T1, human FcRn (human).
T1 construct: also called soluble human FcRn complexed with β2-microglobulin
The assay is described as follows: Biacore, pH 7.0. On the technique in general: SPR reads the build-up and loss of mass on a sensor chip optically.
T1 sequence (chain, as listed by the source limits assumed, chain 1 of 2): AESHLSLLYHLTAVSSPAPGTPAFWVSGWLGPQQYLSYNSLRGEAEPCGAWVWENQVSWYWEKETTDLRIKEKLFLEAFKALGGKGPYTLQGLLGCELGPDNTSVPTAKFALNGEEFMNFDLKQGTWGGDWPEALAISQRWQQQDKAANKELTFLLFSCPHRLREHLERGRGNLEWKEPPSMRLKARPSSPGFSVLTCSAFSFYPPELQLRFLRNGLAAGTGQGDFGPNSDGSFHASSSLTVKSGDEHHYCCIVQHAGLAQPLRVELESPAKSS
T1 sequence (P61769 21-119 limits assumed, chain 2 of 2): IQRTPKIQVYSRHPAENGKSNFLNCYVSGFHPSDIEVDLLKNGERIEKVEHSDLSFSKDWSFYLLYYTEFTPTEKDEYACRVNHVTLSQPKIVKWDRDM
Procedure: (§1) Kinetic analyses between human FcRn and the antibody were carried out using Biacore T100 (GE Healthcare). A suitable amount of protein L (ACTIGEN) was immobilized onto a Sensor chip CM4 (GE healthcare) by the amine coupling method, and antibodies of interest were captured onto it. Next, diluted solutions of FcRn and the running buffer which is the blank were injected, and human FcRn was made to interact with the antibodies captured on the sensor chip. The running buffer used was 50 mmol/L sodium phosphate, 150 mmol/L NaCl, 0.05% (w/v) Tween 20, pH7.0, and the buffer was used for the FcRn dilutions. The sensor chip was regenerated using 10 mmol/L Glycine-HCl, pH1.5. All measurements were carried out at 25° C. Based on the association rate constant ka (1/Ms) and dissociation rate constant kd (1/s), which are kinetic parameters, calculated from the sensorgram obtained by the measurement, the KD (M) (affinity) of each antibody toward human FcRn was calculated. Each parameter was calculated using the Biacore T100 Evaluation Software (GE Healthcare).

Assay [2] deals with T2, human FcRn (human).
T2 construct: also called soluble human FcRn complexed with β2-microglobulin
The assay is described as follows: Biacore SPR, antibody captured on protein L, human FcRn as analyte, pH 7.0, 25 C.
T2 sequence (chain, as listed by the source limits assumed, chain 1 of 2): as the sequence (chain, as listed by the source limits assumed, chain 1 of 2) above
T2 sequence (P61769 21-119 limits assumed, chain 2 of 2): as the sequence (P61769 21-119 limits assumed, chain 2 of 2) above
Procedure: as §1

Changes are numbered by the printed parent chain.

B1: F1353 (antibody)
heavy: QVQLQESGPGLVKPSETLSLTCAVSGHSISHDHAWSWVRQPPGEGLEWIGFISYSGITNYNPSLQGRVTISRDNSKNTLYLQMNSLRAEDTAVYYCARSLARTTAMDYWGEGTLVTVSSASTKGPSVFPLAPSSKSTSGGTAALGCLVKDYFPEPVTVSWNSGALTSGVHTFPAVLQSSGLYSLSSVVTVPSSSLGTQTYICNVNHKPSNTKVDKKVEPKSCDKTHTCPPCPAPELRGGPKVFLFPPKPKDTLYISRTPEVTCVVVDVSHEDPEVKFNWYVDGVEVHNAKTKPREEQYNSTYRVVSVLTVLHQDWLNGKEYKCKVSNKALPAPIEKTISKAKGQPREPQVYTLPPSRDELTKNQVSLTCLVKGFYPSDIAVEWESNGQPENNYKTTPPVLDSDGSFFLYSKLTVDKSRWQQGNVFSCSVMHEALDYHTTRKELSLSP
light: not shown
notes: EU numbering; copies: 2 + 2
Usually Kd stands for the constant that tells how readily two partners part at equilibrium. A higher Kd goes with weaker binding. Take B1: binding with human FcRn [1] was characterised by a dissociation constant (Kd) of 133 nM.

B2: F1430 (antibody, IgG1, name in EU numbering)
heavy: B1 heavy with T258E, V307K, V310P, T438V
light: not shown
notes: EU numbering; copies: 2 + 2
In the case of B2, the Kd in the assay with human FcRn [2] was determined as 31 nM.
